T1: E200-300 peptide (complex peptide epitope of human P2X7 receptor)
T1 peptide: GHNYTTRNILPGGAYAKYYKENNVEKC

T2: E200-300 peptide (complex peptide epitope of human P2X7 receptor) (human)
T2 construct: also called antigen E200-300
T2 peptide: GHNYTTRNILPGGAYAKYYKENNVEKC


Tests used:
[1] = target: T1, E200-300 peptide (complex peptide …); assay: ELISA; Fab
[2] = target: T2, E200-300 peptide (complex peptide …); assay: method not stated
[3] = target: T2, E200-300 peptide (complex peptide …); assay: ELISA on the E200-300 epitope target

Row | EC50 [3] [µg/mL] | Binder | other results
1 | – | 2F6 WT recombinant Fab (Fab, V domains shown) VH: DVKLVESGGGLVKLGGSLKLSCAASGFTFSSYYMSWVRQTPEKRLELVAAINSNGGSTYYPDTVKGRFTISRDNAKNTLYLQMSSLKSEDTAFYYCTRHYSSRFFDVWGAGTTVTVSS VL: DIVMTQSQKFMSTSVGDRVSVTCKASQNVGTNVAWYQQKPGQSPKALIYSASFRYSGVPDRFTGSGSGTDFTLTISNVQSEDLAEFFCQQYNSYPFTFGSGTRLEIK | EC50 [1]: ~250 µg/mL
2 | – | 2F6 hIgG1 (antibody, V domains shown) VH: DVKLVESGGGLVKLGGSLKLSCAASGFTFSSYYMSWVRQTPEKRLELVAAINSNGGSTYYPDTVKGRFTISRDNAKNTLYLQMSSLKSEDTAFYYCTRHYSSRFFDVWGAGTTVTVSS VL: DIVMTQSQKFMSTSVGDRVSVTCKASQNVGTNVAWYQQKPGQSPKALIYSASFRYSGVPDRFTGSGSGTDFTLTISNVQSEDLAEFFCQQYNSYPFTFGSGTRLEIK | Kd [2]: 50 nM
3 | 0.14 | 2F6 IgM antibody (original mouse hybridoma antibody, IgM class with Kappa light chains) (antibody, V domains shown, Mouse IgM, kappa light chain, grown in mouse ascites; also called original IgM; IgM form of the original antibody) VH: DVKLVESGGGLVKLGGSLKLSCAASGFTFSSYYMSWVRQTPEKRLELVAAINSNGGSTYYPDTVKGRFTISRDNAKNTLYLQMSSLKSEDTAFYYCTRHYSSRFFDVWGAGTTVTVSS VL: DIVMTQSQKFMSTSVGDRVSVTCKASQNVGTNVAWYQQKPGQSPKALIYSASFRYSGVPDRFTGSGSGTDFTLTISNVQSEDLAEFFCQQYNSYPFTFGSGTRLEIK | –
4 | 1.6 | recombinant 2F6 mouse IgG2a (antibody, V domains shown, also called 2F6 mIgG2a; mouse IgG2a-2F6) VH: DVKLVESGGGLVKLGGSLKLSCAASGFTFSSYYMSWVRQTPEKRLELVAAINSNGGSTYYPDTVKGRFTISRDNAKNTLYLQMSSLKSEDTAFYYCTRHYSSRFFDVWGAGTTVTVSS VL: DIVMTQSQKFMSTSVGDRVSVTCKASQNVGTNVAWYQQKPGQSPKALIYSASFRYSGVPDRFTGSGSGTDFTLTISNVQSEDLAEFFCQQYNSYPFTFGSGTRLEIK | –
